The target of the assay is APC-B (APC Basic domain, residues 2167-2674), without SNAP (human, UniProt P25054 2167-2674). Description: other fluorescence titration.

A word on the IC50: it is the point on the concentration scale where inhibition reaches its midpoint.

B1: EB1 (full-length, untagged, unlabeled) (natural protein, human, UniProt Q15691 1-268, looked up)
chain: MAVNVYSTSVTSDNLSRHDMLAWINESLQLNLTKIEQLCSGAAYCQFMDMLFPGSIALKKVKFQAKLEHEYIQNFKILQAGFKRMGVDKIIPVDKLVKGKFQDNFEFVQWFKKFFDANYDGKDYDPVAARQGQETAVAPSLVAPALNKPKKPLTSSSAAPQRPISTQRTAAAPKAGPGVVRKNPGVGNGDDEAAELMQQVNVLKLTVEDLEKERDFYFGKLRNIELICQENEGENDPVLQRIVDILYATDEGFVIPDEGGPQEEQEEY
In turn, B1 came in with a 50% inhibitory concentration (IC50) of approximately 300 nM.

(Values after article PMC7726095 (Current biology : CB, 2020).)
